Test results: US20260146091A1 (FUNDACI N PARA LA INVESTIGACI N M DICA APLICADA, published 2026)

T1: biotinylated mPD-1-Fc (BPS Bioscience) (mouse; human, UniProt Q02242 25-169, biotinylated (site not stated))
T1 construct: extracellular domain; Bought from BPS Bioscience; also called mouse PD-1
T1 sequence (looked up): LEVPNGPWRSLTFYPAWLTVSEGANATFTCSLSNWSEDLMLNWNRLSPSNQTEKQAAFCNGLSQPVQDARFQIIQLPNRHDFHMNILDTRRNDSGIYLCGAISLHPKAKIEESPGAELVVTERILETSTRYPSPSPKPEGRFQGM


Key:
[1] = biological target: T2, hPD-1-Fc (human PD-1 ectodomain fused to human IgG1 Fc, R&D) (human, UniProt Q15116 25-170); test: competitive ELISA, human PD-1/PD-L1
T2 construct: extracellular domain; Bought from R&D; not shown: human IgG1 Fc domain
Method: (§1) The ability of nanobodies (Nbs) to inhibit the binding of PD-1 with PD-L1 was evaluated by competitive ELISA. For human molecules, plates were coated with 0.5 μg/mL hPD-1-Fc (R&D, Minneapolis, MN) in PBS o/n at 4° C. […] For mouse molecules, a similar protocol was followed. […] The signal of wells incubated without Nbs or antibodies were considered 100% of PD-1/PD-L1 binding.

[2] = biological target: T1, biotinylated mPD-1-Fc (BPS Bioscience); test: competitive ELISA, mouse PD-1/PD-L1
Method: as §1

[3] = biological target: T3, biotinylated hPD-L1 fused to human IgG Fc (BPS Bioscience) (human, UniProt Q9NZQ7 19-238, biotinylated (site not stated)); test: competitive ELISA, human PD-1/PD-L1
T3 construct: extracellular domain; Bought from BPS Bioscience; also called human PD-L1
Method: as §1

[4] = biological target: T3, biotinylated hPD-L1 fused to human IgG …; test: competitive ELISA, human PD-1/PD-L1; the reference value of envafolimab (5.25 nM) is from the literature
[5] = biological target: T4, mPD-L1-Fc (mouse PD-L1 ectodomain fused to human IgG1 Fc, BioLegend) (mouse; human, UniProt Q9EP73 19-239); test: competitive ELISA, mouse PD-1/PD-L1
T4 construct: extracellular domain; Bought from BioLegend; not shown: human IgG1 Fc domain
Method: as §1

T2 sequence (Q15116 25-170): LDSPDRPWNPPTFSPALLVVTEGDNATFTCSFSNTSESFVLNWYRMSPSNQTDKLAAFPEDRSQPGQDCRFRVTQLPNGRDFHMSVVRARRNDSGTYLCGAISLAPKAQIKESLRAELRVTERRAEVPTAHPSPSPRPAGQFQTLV
T3 sequence (Q9NZQ7 19-238): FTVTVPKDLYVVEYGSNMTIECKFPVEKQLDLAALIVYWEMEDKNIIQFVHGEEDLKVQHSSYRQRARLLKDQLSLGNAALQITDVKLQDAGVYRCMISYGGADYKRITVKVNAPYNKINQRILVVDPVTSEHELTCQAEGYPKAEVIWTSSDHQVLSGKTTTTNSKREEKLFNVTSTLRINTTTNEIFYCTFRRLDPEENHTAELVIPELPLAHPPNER
T4 sequence (Q9EP73 19-239): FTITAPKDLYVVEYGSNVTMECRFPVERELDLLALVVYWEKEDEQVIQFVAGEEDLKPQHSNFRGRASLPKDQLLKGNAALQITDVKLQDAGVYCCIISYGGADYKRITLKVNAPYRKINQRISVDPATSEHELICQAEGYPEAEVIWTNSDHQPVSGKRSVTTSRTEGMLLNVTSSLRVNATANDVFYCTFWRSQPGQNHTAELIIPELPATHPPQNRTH

Binder | fold IC50 reduction against monomeric Nb11 [1] | fold IC50 reduction against nivolumab [1] | fold lower IC50 than nivolumab [1] | fold IC50 reduction against clone RMPI-14 [2] | fold IC50 reduction against monomeric Nb11 [2] | fold IC50 reduction against monomeric Nb6p [3] | fold IC50 reduction of the Fc homodimer against monomeric Nb6p [3] | fold by which the literature IC50 of envafolimab is higher than that of Nb6p-Fc [4] | fold IC50 reduction against monomeric Nb6p [5] | fold IC50 reduction of the Fc homodimer against monomeric Nb6p [5]
Nb11-Fc (Nb11 fused to mouse IgG1 Fc domain including hinge) (Fc fusion, Fc homodimer, concentrated from supernatants of BHK-21 cells electroporated with SFV-Nb11-Fc RNA; also called dimeric Nb11) AQVQLVQSGGGSVQAGDSLRLSCAVSGHPDSSYSMAWFRQAPGKERELVALISWSGAITHYSDSVKDRFTISRDNAKNEMYLQMDSLKPEDTAVYFCQADDPTSELNQYWGQGTQVTVSSGCKPCICTVPEVSSVFIFPPKPKDVLTITLTPKVTCVVVDISKDDPEVQFSWFVDDVEVHTAQTQPREEQFNSTFRSVSELPIMHQDWLNGKEFKCRVNSAAFPAPIEKTISKTKGRPKAPQVYTIPPPKEQMAKDKVSLTCMITDFFPEDITVEWQWNGQPAENYKNTQPIMDTDGSYFVYSKLNVQKSNWEAGNTFTCSVLHEGLHNHHTEKSLSHSPGK | ~40 fold | 10 fold | 8.6 fold | 700 fold | ~40 fold |  |  |  |  | 
Nb6p-Fc (Nb6p fused to mouse IgG2a Fc domain including hinge) (Fc fusion, Fc homodimer, purified on protein A from supernatants of BHK-21 cells electroporated with SFV-Nb6p-Fc RNA; also called dimeric Nb6p) AEVQLVESGGGLVQAGGSLRLSCAAAGRSFNSNAMGWVRQAPGKEREIVAVISATGSYTYYEDSVKGRFTISRDNSKNTVSLQMSSLSSEDTAVYYCAGSRTAALTTIMTLFNYWGQGTQVTVSSPGPRGPTIKPCPPCKCPAPNLLGGPSVFIFPPKIKDVLMISLSPIVTCVVVDVSEDDPDVQISWFVNNVEVHTAQTQTHREDYNSTLRVVSALPIQHQDWMSGKEFKCKVNNKDLPAPIERTISKPKGSVRAPQVYVLPPPEEEMTKKQVTLTCMVTDFMPEDIYVEWTNNGKTELNYKNTEPVLDSDGSYFMYSKLRVEKKNWVERNSYSCSVVHEGLHNHHTTKSFSRTPGK |  |  |  |  |  | ~7 fold | ~8 fold | ~10 fold | ~7 fold | ~8 fold
